± gives the standard deviation of the averaged measurements.
Test system: ATP
Test: switch fluorescence ratio, 500 uM ATP over buffer (Cy3 cluster intensity, sum of 5 cycles each) (fold (ratio)); higher = stronger signal-on switching upon ATP binding; sequences stand for … in TCGTCGGCAGCGTCAGATGTGTATAAGAGACAGTTTTTTTTTTTTTTTTTTTTTTTTT…TC
Settings: aptamer strand: ATP DNA aptamer (quencher-CACCTGGGGGAGTATTGCGGAGGAAGG + anchor), 100 nM annealed; ATP concentration: 500 uM
Method in brief: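 Clusters with intensities outside 100-1000 RFU were excluded. The remaining Cy3-labelled switching-strand clusters on a modified Illumina MiSeq flow-cell had been annealed to 100 nM quencher-labelled ATP aptamer and imaged in selection buffer, then after 15 min with 500 uM ATP at 22 °C, for five cycles separated by NaOH stripping and re-annealing. The fluorescence ratio, averaged per switch-domain sequence, is each cluster's summed target-cycle Cy3 intensity over its summed buffer-cycle Cy3 intensity.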
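Further: ATP exposure 15 min at 22 °C before imaging.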

Sequence	switch fluorescence ratio
GGTAGGGCGT	1.01 ± 0.027
GGTAGGGGTT	1 ± 0.053
GGTAGGTGGC	0.952 ± 0.027
GGTAGGTGGG	1.01 ± 0.055
GGTAGTACTG	0.995 ± 0.095
GGTAGTTCCT	1.02 ± 0.013
GGTAGTTGCC	1.02 ± 0.034
GGTAGTTGTG	0.982 ± 0.013
GGTATAGAGA	0.986 ± 0.051
GGTATCAGGG	0.999 ± 0.022
GGTATCCGGG	0.974 ± 0.019
GGTATCTAGA	1.02 ± 0.0067
GGTATCTTAG	0.9857 ± 0.0087
GGTATGGTAC	1.086 ± 0.0055
GGTATGTTAA	0.98 ± 0.014
GGTATGTTTG	0.96 ± 0.043
GGTATGTTTT	0.978 ± 0.037
GGTATTCAGC	0.957 ± 0.052
GGTATTGCGG	1.05 ± 0.023
GGTATTGGAC	0.9947 ± 0.0058
GGTATTGTAG	0.982 ± 0.025
GGTATTGTGT	1.02 ± 0.028

Sequence	switch fluorescence ratio
GGTATTTTTG	0.992 ± 0.019
GGTCAGGCGA	0.989 ± 0.016
GGTCAGTGTC	0.981 ± 0.052
GGTCATGGGG	0.978 ± 0.023
GGTCCAAGAT	0.9998 ± 0.0066
GGTCCAGTGT	1.06 ± 0.016
GGTCCTGTTT	0.994 ± 0.02
GGTCGAGGGG	0.997 ± 0.021
GGTCGATGAT	0.98739 ± 0.00068
GGTCGCCTCA	0.9687 ± 0.0086
GGTCGGGC	0.969 ± 0.03
GGTCGGGGCG	1.02 ± 0.071
GGTCGGGTTC	0.985 ± 0.015
GGTCGGGTTG	0.979 ± 0.011
GGTCGTAGGG	1.01 ± 0.016
GGTCTAACAT	0.998 ± 0.015
GGTCTACTTG	0.984 ± 0.057
GGTCTAGAGA	0.98 ± 0.033
GGTCTATCCG	0.983 ± 0.046
GGTCTCAAGA	0.993 ± 0.023
GGTCTCTTAC	1.02 ± 0.037
GGTCTGGGGA	1.024 ± 0.0073

Sequence	switch fluorescence ratio
GGTCTTGGCA	0.985 ± 0.052
GGTCTTTTGT	0.998 ± 0.042
GGTGAACTTT	0.964 ± 0.015
GGTGAAGGCA	1 ± 0.023
GGTGAAGGGG	1.15 ± 0.27
GGTGAAGTGC	0.992 ± 0.068
GGTGACTTGG	1.01 ± 0.055
GGTGAGCCTT	0.987 ± 0.012
GGTGAGGGAC	1.02 ± 0.011
GGTGATGCGC	0.978 ± 0.034
GGTGATGGGG	0.985 ± 0.038
GGTGATGTGT	1.004 ± 0.0075
GGTGATTGTG	0.9826 ± 0.004
GGTGATTTAA	1.01 ± 0.012
GGTGATTTAT	1.01 ± 0.029
GGTGCATAGC	0.9714 ± 0.0074
GGTGCATGAC	1.39 ± 0.0037
GGTGCGGGGT	0.983 ± 0.016
GGTGCTAGCG	1.0247 ± 0.00089
GGTGCTTAGG	1.02 ± 0.024
GGTGCTTGGT	0.989 ± 0.018
GGTGGAAAGG	0.982 ± 0.043

Sequence	switch fluorescence ratio
GGTGGAAGAG	0.982 ± 0.036
GGTGGAAGCT	1.01 ± 0.025
GGTGGAAGGG	0.975 ± 0.03
GGTGGAATCA	0.9816 ± 0.0017
GGTGGACAAC	0.997 ± 0.013
GGTGGAGCCC	0.962 ± 0.04
GGTGGAGGAA	1.027 ± 0.0053
GGTGGAGGAG	0.979 ± 0.023
GGTGGAGGGT	0.9938 ± 0.0025
GGTGGATGCC	1.02 ± 0.04
GGTGGATTGG	1.07 ± 0.1
GGTGGCAGGA	1.01 ± 0.032
GGTGGCGCTA	1.01 ± 0.02
GGTGGGCGGG	1.01 ± 0.016
GGTGGGGACG	0.974 ± 0.037
GGTGGGGCAC	0.999 ± 0.041
GGTGGGGCCC	0.983 ± 0.032
GGTGGGGGGA	1.01 ± 0.063
GGTGGGGGT	1.35 ± 0.48
